Reference: US20240026407A1, “MODIFICATION OF SAPONINS” (GLAXOSMITHKLINE BIOLOGICALS SA, priority 2020, published 2024)

B1: 871 (protein, listed as Dactylellina haptotyla)
chain: MLDESVSREIEETLAQLTLEEKISLLAGKDMWRTVPIPDKQVPSIKTSDGPSGARGDSFTGGTKAAFFPSGISMGATFNPELAYEVGQFIGDEVKSKSASVLLAPTACCHRSPLGGRNFESYSEDPLLSGKMASAYIRGVQSKNVAATMKHYAANEQETWRLHVDETIDETTLREIYLKPFEIAMREGRPWAVMSAYNIINGEHCDSNSLTLKQVLRGEWKYEGLVMSDWFGCNSMVDSLLAGLDLEMPGPAKVRPVKELVAKAEKDDSIREAVDKAARRVLTLIAKVGKWKDMTPEAPEISREDPETGKLIRRAGGEGVVLLKNDGALPLQPASLKSIAFVGPNAKATVAGGGGSANLNPNYLTQPYETFVKAIKEIDASIEVPYAQGCIIDRWIPPVNAESGLCRSGGPGSEPGWLVEWFRGHDLKGEVVSSSVFKNSDVFLWDGRPEGLNPAEGYSIRFSGQVSVPEDGNYNIALSTITAGNLYVDGELLIDNWDFKERGNLMMNIGSEEVVKTLELKKGQWYNIEVRNASIWPKDSPRDPPMEEIGALGVRLGLAAVYDNNSLIAQATDSVKNSDAVVIVVGLNNEWESESYDRTQTKLPRNQDELIEEIAKVNKNVIVVNQSGAPIDMPWVENPNVKGIIQAWYAGQEAGNVIADVLLGKQNPSGKLPLTFPVKLEDNPSYNYFPGKDKKVEYTEKLMVGYRYYDTDNVKPRFPFGYGLSYSSFKVGKPVLSTTELSEDGSFTATVEVSNTSAVAGAEVIQLYVQRKTSGTSSIKRPIKELKGFKKIHLQPGETKTAEVTVDDKSLGIWSPEAGKWVVEAGDYEVLVGTSSVYDELAAAGTVVAKSAWSWI
B2: 883 (protein, listed as Salinispira pacifica)
chain: MKSIQEIRSSLTLEEKASLCSGKDFWNLKSFESKGVPAIMVADGPHGLRKQMESSADHIGIGGSVPATCFPTASAMASSWDTQLLNEVGNALGEECRQEHVAVLLGPGVNIKRSPLCGRNFEYFSEDPYLGGKLAASLIRGVQSMGVGTSLKHFAANNQERRRMIIDAVVDERALRELYLAGFETAVKESSPKTVMCAYNKLNGAFCSENHRLLSEILKEEWGFEGFVVTDWGAVNDRVAGLNAGLDLEMPASGGYNDNLMVEAVQNGTLSENSLNDAVDRILKVVLETHTALQEEFTYDAAAHHRLAQKAESESAVLLKNDKLFPLNSEDFRTEEKHGSQEHKSPKLALIGSFAKEPRYQGSGSSLINPRQLDSAYDAISRELGGDMQLLYAPGYDPADEEPDSRLIQEAVNTAAAADTVIVFAGLPEISESEGFDREHLSMPRSHNDLISAVAQVNPRTAVVLSNGSPVTMPWLDSVPAVLESYLGGQAWGSAISDIIFGRANPSGKLAETFPLSLQDVPSSAQFPGGSASVVYTDSLYVGYRYFSGTGKPVLFPFGHGLSYTRFSYDGLKITGRGTGRTVQCRITNTGSRDGKEVIQLYVHSESSSVFRPEQELKGFSKVSLAPGEEKTVEFRLDDRSFAYWDPGAGDWMVESGNYEIRIAASSADIRLRETIRIDSTQTPSQWAADLRNRIPEFFSPAPELFHDISPESPFRKLLGRPIPPPHWDTREGFTRNSTLEETTRTFIGRILYKAVMREGSRMMSQDADEKSIAMMQAVIREMPLKNLGMMGGDKISMHTVDSLILLLNGKIIRGLGSLLRRK
B3: 845 (protein, listed as Kitasatosporia setae)
chain: MTQLSMPSSLTTPASGTDHRVLDLERKARLVSGGDTFRTSPEPALGLFPIVCSDGPVGVRGERWDEADTALLLPCATALAASWDEELVARMGGLLAAEARRKGVHVVLAPTLNLHRSPLGGRNFECFSEDPLLTARIGAAYIGGVQALGVAATAKHYVANDSETERLTVDARVDERTLREVYLAPFEAAVRAGVWAVMSAYNRVNGTSMVEHPLLAEPLKGEWGFDGLVVSDWGSVREADGPGAAACDLSMPGPNPAWGPALAAAVRAGRVPAAALDDKVERLLRLAGRVGAFDPPPAGRAPVPADPATRGALRAAAVAGTVLLHNPDRLLPLDEPALRRVAVLGPNAATARVQGGGSASVFPAAPVSPLNGLRAALDPSVEVTHAPGVRTELRPTPLAAADCVLPDGSGPGVLVRYLAADGSPLHTEARATGRVLEPSADVDLTAVRTIEVASRFTAPSAGRWRLGVVGLGALRLEADGAVLLDEYVAPLSDDPTYLHVAPSFRQVELELAAGQGVDLLARRTVEPEHGRVLVLAADRPAAELEREFAHAVELAAAADVAVVVVGTTDEHESEGFDRAGLRLPGRQDELVEAVAAVNPRTVVVVNTGSPVLLPWRERVGAVLTCWFPGQEGGGALAEVLLGRAEPGGRLPTTWPDAEADCPVYATAPSGGRLAYAEGPHLGHRGWLRAGRTPAYWFGHGLGWGEWCYLALGEPSAPAADGSRTVRVALRNDGPRRSRETVQLYLSRPDSELDRPVRWLAGFGAVEAGPGERVEVELRLPQRALQHWSVEDRAWRTEPGTFVLHVGPHSGELPLAAALPVGA
B4: 830 (protein)
chain: MGTAHDLEQLIAGLTLEEKIALLAGDSLWTVPGIPRLGIRPLKVSDGPAGVRGSRIVPAAAFPAPVLLGATWDPELVERVGQALAEEAETKGAQVVLAPTINLQRTALGGRNFECFSEDPHLTARLAVAYVRGLQSRGIGACIKHYVANDQEFERHTVSVEVDERTLREVYLFPFAVAVAEADPWCVMAAYNRVGGIYCSEHPWLLTTILREELGYQGVVMSDWFATHSTIEALQAGLDLEMPGPPQWRGDKLREAVERGEVALEVIERSARRVLMLYQRAGRFAPGPETSEERAVDRPEHRALIREVGASGMVLLRNEGILPLDLSTVKRVAVIGPHVRRPAVGGGGSAFVRSHPVVTPLEALRESAPQCEFLVEEGAAIFKLIPPLEGEALGSEGAELAFFANPELAGAPVATIRVRTTDLIWLGEVAPGVDASAFSARLRVTMRPEESGRYVLGATAVGQVRVHLDGTLVLDNWTAPQPGRTYFGFGSAEVRAAVDLEAERAYEIVVEYRKFQPGLPLAGFRFGVVHELSDEERIARSVRAAQQADLALLFVGLSPEWESEGFDRESFDLPGAQNALVTAVADANPNTVVVLTAGSPVNLPWLERVGALLLAWYAGEEVGHAVVDVLTGVREPAGRLPFTYPQRLEDTPAFLNYPGEFGRLRYCEGLFIGYRWYDARQIEPLFPFGFGLGYTRFAYRDLVLDRESLGGEEKLTVTCTVENVGERAGSEVVQLYLAFPPGTVRRPLKELRGFRRVHLMPQGSASVSFTVSPRDLAYFDEAAREWVAPPGEYEIMIGAHARDIRLRGRFLLREELRWDAGGRFRDV
modifications: bacterium
B5: 832 (protein, listed as Arthrobotrys oligospora)
chain: MDATTLKEIEETLAQLTLEEKISLLAGKDFWRTVPLPEKQIPSIKVSDGPSGARGDTFSGGQKAAFFPSGILMGATFNPELAYETGALLGEEVKAKSASVLLAPTACCHRSPLGGRNFESYSEDPLLSGKMASGYIRGVQSRGIAATMKHFVANEQETWRLYVDETIDETTLREIYLKPFEIAMREGQPWAIMTAYNIINGVHCDSHPLALKQVLRGEWNYEGLVMSDWFGCNSMVESLLAGLDLEMPGPARKRPIKEFVEAAEKDESIRKAIDDSARRILTLIAKVGKWKDMTPEAPEYSRNDPETGKLIRRAGGEGTVLLKNEGKTLPLQPGSLKKVAFIGPNAKATVAGGGGSASLEPNYLTQPYETFVNAIKEINGDIEVPWVQGCIIDRWVPNIDVEGGFCRVGGPDSEAGLFLEWFRGYEATGEPVATTVFKTSNAFLWDSRPTSISPSEEFSVKFSGQISVPEDGKYNISLSTITASKLYLNGELLIDNWDFKERGNLMMNVGSEEVVKTIELKKGEWYPILVHNSSIWPKDSPRDPPMEEIGALGIRLGVAPVYDNAVLIAEAADAVKDADAVVIVVGLNNEWESESYDRSDTKLPNNQDDLIEEIAKVNQNVIVVNQSGAPVDMPWAENSNVKAIVQAWYAGQEAGHVIADVLLGKQNPSGKLPLTFPIKVQDNPSYFYFPGRDQKVEYTEKLMVGYRYYDTENVETRFPFGYGLSYSTFSIGEPSLSTAELTEGQTFTANIDVSNTSNVAGAEVVQLYVKRPASTSSIKRPVKELKGFKKVHLGTGETATANITVDDKSLGIWSTEAGKWVVEAGDYEVLIGTSSVQDELKPAGKITVKAAWSWI
B6: 837 (protein, listed as Bifidobacterium magnum)
chain: MTDNLTIGVTEANELSVKEQASLTSGQDAWHLQGIPSKGIPGYMITDGPHGLRKTTAGNGDEMNLDRSVPATCFPPAAGLSSSWNPQLVREVGEAMGEECVQEKVAVILGPGVNIKRNPLGGRNFEYWSEDPYLAGHEAAGIVDGVQSKGVGASLKHFAVNNQETDRFRVSALVSERALREIYLPAFEYIVKHSRPWTVMCSYNKINGVYSSENHWLLTDVLRKEWGFDGIVMSDWGADHNRVAALNAGLNLEMPPSGTDEQVVQGVENGTLKREQLETMAQAMIDLAHKAEDAMNQDGYRYNVDDHNNTARRAARESMVLLKNEEHVLPVKEQDHIAVIGEFARTPRYQGSGSSRINPTRLTSFLDAAQERGVSLTFAPGYTLDQSPADTQLEQEAVDAAAQADTVLMFMGLPDYDESEGFDRTTLAMPAKQLELLGKVTAANKRVVVILSNGSAVTMTPWNESVPAILETWLLGQAGGVALADIVFGDVSPSGRLAQTIPVELTDDPSTINWPGEEHHVNYGEGVFVGYRYYDTFHKPVAYPFGFGLGYADFAIDEVQVRATGVHAAQVRAKVTNLSQDTAASHVVQVYVRPVEPKVPGEASEHVARPVHELKGFAKVYLEPGQSDTVTIDLDERAFAYWSEEFHDWRIEGGEYGIEVGSSSRDIAATVPVTIAGDGKRKPLTVWNTLDEWRKDPVGKAVAGELMAKLREQGADFTGGDTSTEIFMNTLPINSLTALMGPQGNQVEDFLLGEYARRTQ

Key:
Type in all cases: biochemical, Quillaja saponaria
[1] = Experiment 5-1: screening of additional glucosidases for deglycosylation with purified QS-18 (0.04 mg/ml) at pH 7.5 and 30 deg C; conditions: pH 7.5, 30 degrees C, 18 hours, LCMS/MS
Method: The 94 additional genes, together with positive control (DNA encoding SEQ ID No. 262) and negative control, were transformed, expressed, lysed and reacted in the same manner as described above for Experiment 4-1, except the reaction was incubated at 30 degrees C. for 18 hours.
Samples were analysed by LCMS/MS according to the procedure in Experiment 4-1.

[2] = Experiment 5-2: screening of additional glucosidases for deglycosylation with QS-18 in crude bark extract (80%) at pH 6 and 35 deg C; conditions: CBE 80%, pH 6, 35 deg C, 18 hours; UV HPLC
Summary of the method: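 Clarified glucosidase lysate (prepared at pH 6) was incubated with pH 6-adjusted crude bark extract at 35 deg C with shaking for 18 hours. Reactions were quenched with MeCN containing 2% AcOH and hexanophenone, then analysed by UV HPLC.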

[3] = Experiment 5-3: screening of additional glucosidases for deglycosylation with QS-18 in treated bark extract (80%) at pH 6 and 35 deg C; conditions: TBE 80% (QS-21 approx. 4 g/L), pH 6, 35 deg C; UV HPLC
Method: Experiment 5-1 was repeated, replacing CBE with Treated Bark Extract (TBE) at pH 6. TBE was prepared from CBE by PVPP treatment and concentration, to provide TBE with a QS-21 concentration of approximately 4 g/L. TBE was adjusted to pH 6 by dropwise addition of 2M NaOH with stirring.

| Molecule | Experiment 5-1 % conv [1] [%] | Experiment 5-2 % conv [2] [%] | Experiment 5-3 % conv [3] [%] |
| --- | --- | --- | --- |
| B1 | 7.8 | <0.5 | <0.5 |
| B2 | 7.0 | <0.5 | <0.5 |
| B3 | 9.2 | <0.5 | <0.5 |
| B4 | 9.3 | <0.5 | <0.5 |
| B5 | 9.8 | <0.5 | <0.5 |
| B6 | 7.6 | <0.5 | <0.5 |
